According to the DeepSol protein solubility set:

Assay: soluble on expression in E. coli; label from the status in PepcDB or PDB records

Sequence | soluble on expression in E. coli
MGSDKIHHHHHHMQLGTGLFTCQQRPDDDRETSEIYDEMLELGEVIDNAGLDSAWVSEHHFLDDDYLSGVTPALGALAAVTDNIEIGSCIALAPLYDSIRLAEDIATVDQISGGRTTLGMAIGSNVSEFDAFGIPDDERAERLADAVDTLRGAWSDGPLDYEPEFHDISSDVTVTPKPAHDVPLMLGGASRPAVRRAARTADAWCAPSSLSVDGVRKRVEDIRNVRDDEDIEGDFQVYVLQHGFIGDSREDAWAQMRDGYLYIQRRYEEIFSGETVAELDEERKQELKEQAIFGTPDQVTAELESYREALGDDIHFIFRTYHPGTGTQEMAECIRRLGEEVQPKIS | not soluble
MLHAKIETLGVDPQNGSVVVLLRTENDKLLPIVIGPLEAHHIVVALQGEKPPRPLTPDLLLSVMEMLQAKLKRVEIVDLRDGTFYARLILEHRGIELEVDARPSDAMALALRAGAPILVAEEVVEKAGVEEANIRPHGAAEA | soluble
MPTYPPSLLQSLLQYIPERELAWDCGAGSGQLTHMLASYFDQVVGTDISQTQLSHAEYYDNISYQLQPAENTTFPDHCFDLITVAQAIHWFDFEAFYAEVRRTIKPSGILAVVGYGLIHVDDLEINAKVQHLYHQTLNGFWDAERHYVDELYQTIPFPFDEIEMPAFQIEAQWTLQQLLQYLNTWSAVQHYILEKNLDPVQQLLSKGLEHHHHHH | not soluble
MASFVEMRKLAEAKVQNMIRTIVKPKEQNGNVEPKKEEDEKFESTYKQNENTQITPSSFGKRPLYSKVDINCDKWLMTLDEESRLKIDNPPSLVDGLSKETESELRYLGCELIQQGAILLKLPQTAAATGQILFQRYYYQKSFVRYHFEHAVQACLLLASKIEEEPRRPREVYNVFHRLERLHRLQQSGHDINKRLEAKHGSSILRCFG | not soluble
MSDFMSNTAALQLLHNAVKSYEREVANFFAANEKATSKYTGRFDFRQFAKKMFDPIPTAQLGQLYIEMLEESHIYMHSHQKSRVGANGYPHSFVSVPELLLNMILAYQLPQQRFVPAEKMEEDGGKVEEDGGAGGAGGSRKKRRNSAARKGKNVTINPRVVLGNELAAKLLEEMLKIPLAPESKQWKTAKYVLCPSSCPQQMEVFGEIIAKNTKSGLISFNALNYFMHDPILNRYLDDPITILHALYIGPLQAPTVELFATNRTDVFRQRCREVLRIALHASKDPMTFTYSVPEFIDKNHPDRCSYRDFVETVTQLIRDLNGEHQGSTAIHTGWACAAIKKFGQKRYVDKTWKDENYYDLIWTVLAQRPHLKKFVVDVLEKNFKDLDAARFWRRMQPYQMNPTVIFNQNVIIVDPLQPTDEFLNFPPTVRHIQMVTNEKEIRDLQMLLEYKVSREEKIYVGVDAEWSAYVSPSKATILQMSLHDCIYIIDLESYQISPQSYHHVLSYLFETPEIVKIGFQFGEDLHQLRAAFRNCVALYRPNNVVCVGKLIMDLMDEIGKLENCDDFRKEWLPHLTDNETSSAANSSVEEQANETIDTNESMDEGDGGGSGIVVKKEESVKQQFLNKGLSFICEKLLGRPLDKTEQCSVWDRRPLRCLQLRYAAMDAYCMLLLYEKCATIFAKLGINVNDFVSKQSPIRISLPLLSEEKL | not soluble
TSIMAVTFKDGVILGADSRTTTGAYIANRVTDKLTRVHDKIWCCRSGSAADTQAIADIVQYHLELYTSQYGTPSTETAASVFKELCYENKDNLTAGIIVAGYDDKNKGEVYTIPLGGSVHKLPYAIAGSGSTFIYGYCDKNFRENMSKEETVDFIKHSLSQAIKWDGSSGGVIRMVVLTAAGVERLIFYPDEYEQL | soluble
MSVQNGFTAKIIRFVPHFVALRLSWTHNDLKAEGLEQFVEECLPAIRENNPQVKYFLQRSYTTCDPFVVGEYSWLRHRKKRVNWKSKEQVLSMIEEMSIGGDYREGYKRGVNRRLPRGQELWDTETMGHDVFHVTSKWKADIPEEDELPITAKTHPNFTYRKY | not soluble
MGSDKIHHHHHHMSVRVNNLLKLPSLREATVLSGKNQLDTSVASLSFLEVSDMSLFSEKLHKTNEYHAGEILIGSFCAIRHDVVKQCETIRHLHELGEVGLILYYVGIIVPKVAEEVIQLADSLGFILIQMPKNDPTLRYNEVIYEVMKLLVNKNKMASFATDLLEKVSLLPEQNRSVEMTLKILSDFLKVNIALTTYTNEIISTINWPRSTKLPLTKLLYQSQEKVALGETTYFITSQKLPQKDGQTLKLYFIREEEQLTSFEMNQAVEVVQMALNLWGKNYDEVSEYALVQAIINDESDKMYQLAKKLMIDISSVETMWLLPIWQQGQEIHAIQQDLKDFLRYYYQTTIVQQTENYLIVLLGNYLHKQPEATISKEYLQATDYQDYLGEIILCPKVRNTTEVRVSYQTANQVAPFLKRVYPQRKVLSIAEIRTVQQMMTCLQAGEEAIQQRLAVIQPLLKESEQLMTLGTFLLDASSDFNECGERLFVHKNTVKYRISKINEALGYDMTNAAEAYEVYLAMILYRLVTNE | not soluble
MSATVVDAVNAAPLSGSKEMSLEEPKKMTREDWRKKKELEEQRKLGNAPAEVDEEGKDINPHIPQYISSVPWYIDPSKRPTLKHQRPQPEKQKQFSSSGEWYKRGVKENSVITKYRKGACENCGAMTHKKKDCFERPRRVGAKFTGTNIAPDEHVQPQLMFDYDGKRDRWNGYNPEEHMKIVEEYAKVDLAKRTLKAQKLQEELASGKLVEQANSPKHQWGEEEPNSQTEKDHNSEDEDEDKYADDIDMPGQNFDSKRRITVRNLRIREDIAKYLRNLDPNSAYYDPKTRAMRENPYANAGKNPDEVSYAGDNFVRYTGDTISMAQTQLFAWEAYDKGSEVHLQADPTKLELLYKSFKVKKEDFKEQQKESILEKYGGQEHLDAPPAELLLAQTEDYVEYSRHGTVIKGQERAVACSKYEEDVKIHNHTHIWGSYWKEGRWGYKCCHSFFKYSYCTGEAGKEIVNSEECIINEITGEESVKKPQTLMELHQEKLKEEKKKKKKKKKKHRKSSSDSDDEEKKHEKLKKALNAEEARLLHVKETMQIDERKRPYNSMYETREPTEEEMEAYRMKRQRPDDPMASFLGQ | not soluble
MKAVTFPVPWEYLKRIFEGKNVFVKPATLRVEEGMKVIFYASRENQGWHGEAEVERVEYYTSVEEIIKKYRDKLFLTPEELRRYERDRARWDSGRRKRPWMVLVLRNIEKYPRVVKPKKFIVVSGRYVDEKEYEEIRRSTSLEHHHHHH | soluble
MARLKTAQPNSSLRKIAVVVATAVSGMSVYAQAAVQPKEETITVTAAPAAQESAWGPAPTIAAKRSATTTKTDTPIEKTPQSVSVVTNEEMQMHQFQSVKEALGYTPGVTVSSRGASNTYDFVIIRGFSSVGLSQNNYLDGLKLQGNFYNDAVIDPYMLERVELMRGPTSVLYGKSNPGGIISMVSKRPTTEPLKEIQFKMGTDNLFQTGFDFSDSLDDNGEFSYRLTGLARSTNEQQKSSESQRYAIAPSFTWRPDEKTNFTFLSYFQNEPETGYYGWLPKEGTVEPLPNGKRLPTDFNEGASNNTYSRNEKMVGYSFEHGFNDTFTVRQNLRFVEMKTAQKSVYGTGIAADGHTLNRGTIVDNERLQNFSVDTQLESKFATGDIDHTLLTGVDFMRMRNDINATFGSAPSIDLYNNYHPEYFAFGGAEPYQMNESKQTGLYVQDQAEWNKWVFTLGGRYDWSKQATTVRQNSTTPTEGYIERNDHQFTWRGGVNYVFDNGISPYFSYSQSFEPSAFDLWSTPRVSYKPSKGEQYEAGVKYVPKDMPVVVTGAVYQLTKTNNLTADPTNPLAQVPAGEIRARGVELEAKAALTANINMTASYTYTDAEYTKDTNLKGNTPEQVPEHMASLWGDYTFNEGPLSGLTLGTGGRFIGSSYGDPANSFKVGSAAVMDAVVKYDLARFGMAGSSIAVNVNNLLDREYVASCFQTYGCFWGAERQVVATATFRF | not soluble
MGSDKIHHHHHHMMDMLMSTPNYNASLLAMATAALNALDSSHAGAAHATEAQQSHFLCNWMAQALKDKSFDKAIAGELTLWVRQGRSMGSSAQLKRLLQTIRHQYSTLAEHTMGLGNALAKMLEDARQQDVIVYTDTPVKTKLKLDADGQSSIIVCADEYQQHIRDGELIKPISLFVRADEKFLAKLAFSHGLMLTQGDKKSSLIKHHKSYKLFPKNQLPSLALLTFH | not soluble
MAYWLMKSEPDELSIEALARLGEARWDGVRNYQARNFLRAMSVGDEFFFYHSSCPQPGIAGIARITRAAYPDPTALDPESHYHDAKATTDKNPWSAVDVAHVQTFPRVLELGRLKQQAGLVELPLVQKGSRLSVMPVTPEQWAVIVALRLEHHHHHH | soluble
MGSDKIHHHHHHMARLRVYELARKLNMSPKELLQELEELGVNVKSHMSYVDEEMANIIIDLLEEDNRKAKQPSKPKKEKGEEEVEKEVVEKKKKKKITLKPDELKLDIIAEKIGVPQNKIIQDMFVKRGIALRPGQILKLEEVEQILKEYKIEIEIEEEQQTSVEEVDEFELLEKRYQELYEKEKDKLVPRPPVVTVMGHVDHGKTTLLDRIRSTRVAEREEGGITQSIGAYQVEVNGKKITFIDTPGHELFTEMRARGAQATDIVVLVVAADDGVMPQTIEAYNHAKAANVPIIVAINKIDKPNANVEKTKQELVEKLGLIPEEWGGDTIVVPISARTGQGVDELLEMILLVAEMNEIKCYPEGPARAVIIESKLDKKMGPVASAIVKDGVLKVGDAVVASNTYGRVRNLFDDNMRPIREAYPSQPVMILGFEDVPDVHSNVYVVESAEKAKEIVEKRLQRLEAQKQSRKHINLEELMKMMQEKEKKVLNLILKADTYGSVAALKNAINKLQSKEIELNIVHAGVGEISTSDVMLAAAVDGVILGFRVKVNNQARRLAEQEGVDVRTYSIIYKLVEDLKLALEGMLEPEEVEEVIGHGEIRKVFKISKVGKVAGVQMLDGKADRNGFVRIYRNGQLVFGGKIESLKHYKEDVSVVEAPQECGIKFAGFDDIHEGDELEFYVIRKVKRKPTFVEEQADQEQK | not soluble
MAFEFKLPDIGEGIHEGEIVKWFVKPGDEVNEDDVLCEVQNDKAVVEIPSPVKGKVLEILVPEGTVATVGQTLITLDAPGYENMTFKGQEQEEAKKEEKTETVSKEEKVDAVAPNAPAAEAEAGPNRRVIAMPSVRKYAREKGVDIRLVQGTGKNGRVLKEDIDAFLAGGAKPAPAAAEEKAAPAAAKPATTEGEFPETREKMSGIRRAIAKAMVHSKHTAPHVTLMDEADVTKLVAHRKKFKAIAAEKGIKLTFLPYVVKALVSALREYPVLNTSIDDETEEIIQKHYYNIGIAADTDRGLLVPVIKHADRKPIFALAQEINELAEKARDGKLTPGEMKGASCTITNIGSAGGQWFTPVINHPEVAILGIGRIAEKPIVRDGEIVAAPMLALSLSFDHRMIDGATAQKALNHIKRLLSDPELLLMEA | soluble
MSLTNVAEDQLTAQAVAPPTEASAALEPALETPESPVETLKTSISASRRVRARLARRMTAQRSTTNPVLEPLVAVHREIYPKADLSILQRAYEVADQRHASQLRQSGDPYITHPLAVANILAELGMDTTTLVAALLHDTVEDTGYTLEALTEEFGEEVGHLVDGVTKLDRVVLGSAAEGETIRKMITAMARDPRVLVIKVADRLHNMRTMRFLPPEKQARKARETLEVIAPLAHRLGMASVKWELEDLSFAILHPKKYEEIVRLVAGRAPSRDTYLAKVRAEIVNTLTASKIKATVEGRPKHYWSIYQKMIVKGRDFDDIHDLVGVRILCDEIRDCYAAVGVVHSLWQPMAGRFKDYIAQPRYGVYQSLHTTVVGPEGKPLEVQIRTRDMHRTAEYGIAAHWRYKEAKGRNGVLHPHAAAEIDDMAWMRQLLDWQREAADPGEFLESLRYDLAVQEIFVFTPKGDVITLPTGSTPVDFAYAVHTEVGHRCIGARVNGRLVALERKLENGEVVEVFTSKAPNAGPSRDWQQFVVSPRAKTKIRQWFAKERREEALETGKDAMAREVRRGGLPLQRLVNGESMAAVARELHYADVSALYTAIGEGHVSAKHVVQRLLAELGGIDQAEEELAERSTPATMPRRPRSTDDVGVSVPGAPGVLTKLAKCCTPVPGDVIMGFVTRGGGVSVHRTDCTNAASLQQQAERIIEVLWAPSPSSVFLVAIQVEALDRHRLLSDVTRALADEKVNILSASVTTSGDRVAISRFTFEMGDPKHLGHLLNAVRNVEGVYDVYRVTSEGHHHHHH | not soluble
